The target in test [1] is recombinant apolipoprotein E4 (UniProt P02649). Description: plate binding assay with HiBiT luminescence (Nano-Glo HiBiT Extracellular Detection System); ApoE4 or adiponectin coated on 96-well plates (20 pM in 50 mM carbonate buffer pH 9.6, overnight 4 °C), blocked with 1% skim milk in PBS; CLSP-HiBiT in PBS added, overnight 4 °C; washed with PBS with 0.1% NP-40; in duplicate.

Test [2] addresses T1, recombinant adiponectin (UniProt Q15848 19-244).
T1 construct: adiponectin; also called ADN; source: recombinant
T1 sequence (looked up): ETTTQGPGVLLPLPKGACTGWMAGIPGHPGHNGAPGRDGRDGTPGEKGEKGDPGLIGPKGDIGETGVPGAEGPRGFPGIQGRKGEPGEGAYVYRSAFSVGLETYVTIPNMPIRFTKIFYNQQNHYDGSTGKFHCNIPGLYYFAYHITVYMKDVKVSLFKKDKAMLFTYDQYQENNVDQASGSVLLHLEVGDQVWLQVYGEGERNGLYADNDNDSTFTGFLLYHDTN
The test is described as above. Conditions: both partners purified.

B1: CLSP-HiBiT (natural protein, human, UniProt Q9NZT1 1-146, looked up)
chain: MAGELTPEEEAQYKKAFSAVDTDGNGTINAQELGAALKATGKNLSEAQLRKLISEVDSDGDGEISFQEFLTAAKKARAGLEDLQVAFRAFDQDGDGHITVDELRRAMAGLGQPLPQEELDAMIREADVDQDGRVNYEEFARMLAQE
notes: calmodulin-like skin protein (CLSP); also called recombinant CLSP-HiBiT; source: recombinant
As a reminder, the Kd is the free concentration of one partner at which half of the binding sites on the other are occupied at equilibrium, for simple one-to-one binding. For the molecule B1, the Kd was found to be 8.8 pM in test [1] and 7.8 pM in test [2].

Source of the values: publication PMC7806720, “Restoration of the reduced CLSP activity alleviates memory impairment in Alzheimer disease” (Translational Psychiatry, 2021).
